In paper PMC10786891, “Massively parallel profiling of RNA-targeting CRISPR-Cas13d”:
Residue numbers refer to the chain shown, from its start. Names and notes keep the numbering of the source.

Molecular target: T1, EsCas13d, nuclease-dead (Eubacterium siraeum, UniProt B0MS50, R295A;H300A;R849A;H854A)
T1 sequence: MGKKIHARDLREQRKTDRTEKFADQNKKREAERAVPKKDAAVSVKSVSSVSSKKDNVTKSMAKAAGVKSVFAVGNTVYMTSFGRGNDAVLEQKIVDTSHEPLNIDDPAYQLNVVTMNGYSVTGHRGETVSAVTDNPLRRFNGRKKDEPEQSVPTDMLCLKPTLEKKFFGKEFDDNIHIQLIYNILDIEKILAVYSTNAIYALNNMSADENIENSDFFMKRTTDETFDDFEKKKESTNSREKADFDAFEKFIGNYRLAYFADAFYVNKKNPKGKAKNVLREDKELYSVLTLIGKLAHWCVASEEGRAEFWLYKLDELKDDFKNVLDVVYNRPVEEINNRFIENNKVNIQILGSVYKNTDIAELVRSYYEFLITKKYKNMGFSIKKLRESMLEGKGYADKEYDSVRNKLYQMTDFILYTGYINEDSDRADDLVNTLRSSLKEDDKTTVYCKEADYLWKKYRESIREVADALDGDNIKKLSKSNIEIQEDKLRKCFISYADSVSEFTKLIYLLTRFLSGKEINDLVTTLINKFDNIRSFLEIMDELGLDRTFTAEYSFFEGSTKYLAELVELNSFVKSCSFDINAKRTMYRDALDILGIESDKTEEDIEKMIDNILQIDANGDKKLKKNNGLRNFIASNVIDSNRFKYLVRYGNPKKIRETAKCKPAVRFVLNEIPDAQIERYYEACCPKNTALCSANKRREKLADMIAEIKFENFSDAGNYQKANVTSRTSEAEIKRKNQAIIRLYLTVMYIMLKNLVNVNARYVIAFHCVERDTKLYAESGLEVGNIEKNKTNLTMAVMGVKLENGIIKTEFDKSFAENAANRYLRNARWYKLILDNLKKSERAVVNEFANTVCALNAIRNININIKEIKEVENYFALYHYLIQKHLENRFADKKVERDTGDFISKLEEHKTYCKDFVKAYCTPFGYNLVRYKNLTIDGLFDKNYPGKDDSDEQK
Assay: crRNA (strand 1, pre-loaded); Mg2+; 40 mM Tris-HCl pH 7.5, 150 mM NaCl, 6 mM MgCl2, 1 mM DTT, 0.1% Tween-20, 0.2 mg/ml BSA; 25 C; 10 min per concentration, then washed
Conditions: tags: His6-TwinStrep-SUMO cleaved; N-terminal SNAP kept (SNAP-Surface 488); label: 3' end held by stalled T7 RNA polymerase

B1: target 1 insC 3' of 22,insU 3' of 6 (mixed)
RNA 1: CACCCGUGCAAAAAUGCAGGGGUCUAAAACUGAGCGGAUAACCUCUCUAUGG
RNA 2: GGGAAUGGAUCCACAUCUACGAAUUCGUACCCAUAGAGAGGUUAUCCUGCUCACCGAGAUCGGAAGAGCACACGU
- Kd: 20 ± 2 nM

B2: target 1 insU 3' of 22,insU 3' of 4 (mixed)
RNA 1: B1 RNA 1
RNA 2: B1 RNA 2 with C31U, U48G, G49C, C50U
- Kd: 32 ± 5 nM

B3: target 1 insC 3' of 22,insG 3' of 11 (mixed)
RNA 1: B1 RNA 1
RNA 2: B1 RNA 2 with U43G, A44U, U45A, C46U, U48C
- Kd: 41 ± 4 nM

B4: target 3 insA 3' of 20,insU 3' of 19 (mixed)
RNA 1: CACCCGUGCAAAAUUGCAGGGGUCUAAAACGACCUGAAUAUUUCAGAUCAAA
RNA 2: GGGAAUGGAUCCACAUCUACGAAUUCGUUUUUAGUAUCUGAAAUAUUCAGGUCUGCAGAUCGGAAGAGCACACGU
- Kd: 62.5 ± 14.5 nM

B5: target 3 insU 3' of 22,insA 3' of 19 (mixed)
RNA 1: B4 RNA 1
RNA 2: B4 RNA 2 with A33U, U35A
- Kd: 77 ± 16 nM

B6: target 3 U2G,A12C (mixed)
RNA 1: B4 RNA 1
RNA 2: GGGAAUGGAUCCACAUCUACGAAUUCGUUUUUGAUCUGACAUAUUCAGGGCUGCAGAUCGGAAGAGCACACGU
- Kd: 23.5 ± 4 nM

B7: target 3 U21G,U22A (mixed)
RNA 1: B4 RNA 1
RNA 2: B6 RNA 2 with U30A, U31G, C40A, G50U
- Kd: 57.5 ± 15.5 nM

B8: target 3 insG 3' of 11,insA 3' of 6 (mixed)
RNA 1: B4 RNA 1
RNA 2: GGGAAUGGAUCCACAUCUACGAAUUCGUUUUUGAUCUGAAAGUAUUCAAGGUCUGCAGAUCGGAAGAGCACACGU
- Kd: 91.5 ± 22 nM

B9: target 3 insA 3' of 21,insA 3' of 2 (mixed)
RNA 1: B4 RNA 1
RNA 2: GGGAAUGGAUCCACAUCUACGAAUUCGUUUUAUGAUCUGAAAUAUUCAGGUACUGCAGAUCGGAAGAGCACACGU
- Kd: 30.3 ± 2.6 nM

B10: target 3 insG 3' of 8,insG 3' of 5 (mixed)
RNA 1: B4 RNA 1
RNA 2: B8 RNA 2 with G42U, U43A, A44U, U45G, A49G
- Kd: 62 ± 11 nM

B11: target 3 U2G,A13U (mixed)
RNA 1: B4 RNA 1
RNA 2: B6 RNA 2 with A39U, C40A
- Kd: 46.5 ± 13.5 nM

B12: target 3 G3A,A5U (mixed)
RNA 1: B4 RNA 1
RNA 2: B6 RNA 2 with C40A, A47U, G49A, G50U
- Kd: 61.5 ± 8.5 nM

B13: target 3 del8 (mixed)
RNA 1: B4 RNA 1
RNA 2: GGGAAUGGAUCCACAUCUACGAAUUCGUUUUUGAUCUGAAAUAUCAGGUCUGCAGAUCGGAAGAGCACACGU
- Kd: ~114 nM

B14: target 3 del2,del8 (mixed)
RNA 1: B4 RNA 1
RNA 2: GGGAAUGGAUCCACAUCUACGAAUUCGUUUUUGAUCUGAAAUAUCAGGCUGCAGAUCGGAAGAGCACACGU
- Kd: 47 ± 8.5 nM

B15: target 3 C1G,G4A (mixed)
RNA 1: B4 RNA 1
RNA 2: B6 RNA 2 with C40A, G48A, G50U, C51G
- Kd: 15.9 ± 1.8 nM

B16: target 3 complement block 5-7 (mixed)
RNA 1: B4 RNA 1
RNA 2: B6 RNA 2 with C40A, U45A, C46G, A47U, G50U
- Kd: 39.1 ± 2.9 nM

B17: target 3 C6U,U7A (mixed)
RNA 1: B4 RNA 1
RNA 2: B6 RNA 2 with C40A, U45A, C46U, G50U
- Kd: 40 ± 4.25 nM

B18: target 3 insC 3' of 22,insG 3' of 5 (mixed)
RNA 1: B4 RNA 1
RNA 2: B9 RNA 2 with U31C, A32U, U51G, A52U
- Kd: 93.5 ± 26 nM

B19: target 3 U7G,U22C (mixed)
RNA 1: B4 RNA 1
RNA 2: B6 RNA 2 with U30C, C40A, U45G, G50U
- Kd: 65 ± 26 nM

B20: target 3 del2 (mixed)
RNA 1: B4 RNA 1
RNA 2: B13 RNA 2 with C45U, A46C, G47A, U49G
- Kd: 9.1 ± 0.7 nM

B21: target 3 insA 3' of 10,insA 3' of 2 (mixed)
RNA 1: B4 RNA 1
RNA 2: B8 RNA 2 with G42U, U43A, A49G, G51U, U52A
- Kd: 56 ± 8.5 nM

B22: target 3 G3C,G4A (mixed)
RNA 1: B4 RNA 1
RNA 2: B6 RNA 2 with C40A, G48A, G49C, G50U
- Kd: 6.6 ± 0.65 nM

B23: target 3 del1 (mixed)
RNA 1: B4 RNA 1
RNA 2: B13 RNA 2 with C45U, A46C, G47A, U49G, C50U
- Kd: 27.1 ± 2.55 nM

B24: target 3 insA 3' of 22,insA 3' of 2 (mixed)
RNA 1: B4 RNA 1
RNA 2: B9 RNA 2 with U31A, A32U
- Kd: 24.9 ± 2.35 nM

B25: target 3 insG 3' of 9,insC 3' of 3 (mixed)
RNA 1: B4 RNA 1
RNA 2: B8 RNA 2 with G42U, U43A, A44G, A49G, G51C
- Kd: 42 ± 7 nM

B26: target 3 insC 3' of 22,insG 3' of 2 (mixed)
RNA 1: B4 RNA 1
RNA 2: B9 RNA 2 with U31C, A32U, A52G
- Kd: 59 ± 11 nM

B27: target 3 insG 3' of 7,insG 3' of 5 (mixed)
RNA 1: B4 RNA 1
RNA 2: B8 RNA 2 with G42U, U43A, A44U, U46G, A49G
- Kd: 46.5 ± 7.5 nM

B28: target 3 U2G,A11C (mixed)
RNA 1: B4 RNA 1
RNA 2: B6 RNA 2 with C40A, A41C
- Kd: 63 ± 25.5 nM

B29: target 3 U10C (mixed)
RNA 1: B4 RNA 1
RNA 2: B6 RNA 2 with C40A, U42C, G50U
- Kd: 88 ± 22 nM

B30: target 3 insA 3' of 14,insU 3' of 5 (mixed)
RNA 1: B4 RNA 1
RNA 2: B8 RNA 2 with G42A, A49U
- Kd: 69.5 ± 12.5 nM

B31: target 3 del1,del5 (mixed)
RNA 1: B4 RNA 1
RNA 2: B14 RNA 2 with C45U, A46C, C49U
- Kd: 14 ± 2.2 nM
